Laboratory results published in publication PMC9852224.

What was measured:
[1] = target: Mule (preparation of Supplemental Figure 3D, not told) (UniProt Q7Z6Z7)
Noxa = Noxa (UniProt Q13794); test: FLAG co-immunoprecipitation, immunoblot; details: reference: WT-FLAG-MCL-1; sites T163
BAK = BAK (UniProt Q16611); test: FLAG co-immunoprecipitation, immunoblot; details: reference: WT-FLAG-MCL-1; sites T163

“Mule (preparation of Supplemental Figure 3D, not told) (from UniProt Q7Z6Z7 1-4374) (natural protein)” gave a stoichiometry N [1] of 2.

With “Mcl-1 (from UniProt Q07820) T163A-FLAG-MCL-1” the “binding against the reference” value (Noxa) was “lost” and the “binding against the reference” value (BAK) was “lost”.
